What was measured:
[1] = target: partially purified 17-1A antigen (isolated from SW116 cells) (human) (UniProt P16422); experiment: competition with 125I murine 17-1A on plates coated with partially purified 17-1A antigen; 50% binding value
[2] = target: partially purified 17-1A antigen (isolated from SW116 cells) (human) (UniProt P16422); experiment: cold murine 17-1A competing with 125I murine 17-1A on plates coated with partially purified 17-1A antigen; 50% binding value

| IC50 [1] | IC50 [2] | Substance |
| --- | --- | --- |
| 0.3 µg/mL | – | G1K 17-1A Chimeric IgG (from UniProt P01857 1-330) (antibody) |
| – | 0.16 µg/mL | murine monoclonal antibody 17-1A |
